# Residues, ends and D or L forms follow the SMILES beside them. *: point of attachment. X1 = CC1(C)C(/C=C/C=C/C=C/C=C2/N(CCCCCC(=O)NCCN3C(=O)CC(*)C3=O)c3ccc4ccccc4c3C2(C)C)=[N+](CCCCS(=O)(=O)[O-])c2ccc3ccccc3c21
# Test system: 4T1 tumor
# Test: Ex vivo NIRF imaging of organs (biodistribution and kinetics of ICG-pHLIP)
# Assay type: in vivo, mouse
# Conditions: for Fluorescence intensity, Bone / Fluorescence intensity, Brain / Fluorescence intensity, Heart / Fluorescence intensity, Kidneys / Fluorescence intensity, L. Intest. / Fluorescence intensity, Liver / Fluorescence intensity, Lungs / Fluorescence intensity, Muscle / Fluorescence intensity, Pancreas / Fluorescence intensity, S. Intest. / Fluorescence intensity, Skin / Fluorescence intensity, Spleen / Fluorescence intensity, Stomach / Fluorescence intensity, Tumor: mean ± St. D., 5 animals
# Procedure: BALB/cAcNHsd mice ranging in age from 5 to 6 weeks obtained from Envigo RMS Inc were used in the study. Mouse mammary 4T1 cancer cells were subcutaneously implanted in the right flank (8×10^5 cells/0.1 mL/flank) of adult female mice. Triple negative 4T1 tumor model closely mimics stage IV of human breast cancer. When tumors reached 5-6 mm in diameter, single tail vein injections of 2.5 nmol (or 0.5 mg/kg) of ICG-pHLIP in sterile PBS with 5% DMSO or 5% Ethanol (volume of the injection was 100 μl) were performed. The whole body and ex vivo imaging was performed using a Stryker 1588 AIM clinical imaging system with L10 AIM Light Source, 1588 AIM Camera using a 10 mm or 5 mm scope.
# Animals were euthanized at time points: 5 min, 1 hr, 2 hrs, 4 hrs, 6 hrs, 16 hrs, 26 hrs and 48 hrs. […] 100 μl of blood was collected immediately after euthanasia and mixed with 12.5 μl of citrate-dextrose anticoagulant solution (kept at 4° C.), and necropsy was performed. Tumor, muscles, skin, heart, lungs, liver, spleen, kidneys, brain, pancreas, bone, stomach, small and large intestines were collected, imaged immediately after collection, weighed, and fast frozen in liquid nitrogen.
# The ex vivo imaging of organs was performed using a Stryker 1588 AIM clinical imaging system with L10 AIM Light Source, 1588 AIM Camera using a 10 mm scope. The lens was spaced 4.3 cm away from the surface of the organs within an enclosed (light protected) area. The NIRF imaging of each organ was performed at three different laser intensities set on a hexadecimal scale as 0B-22 (low), 12-5C (medium), and 20-3A (high). The digital images of organs were processed using program written in Python to determine the average level of intensity recorded in the green channel. Since organs were imaged in the dark on black mats, the background signal was determined by introducing an intensity threshold. All the pixels with intensity from the green channel above the set threshold were counted and the average green intensity per pixel was calculated. Thus, the mean intensity per organ (Table 17a) and averaged over organs from 5 animals (Table 17b) was calculated.
structure (smiles),measurement,setting,value
CC(C)C[C@H](NC(=O)[C@H](Cc1ccc(O)cc1)NC(=O)[C@H](C)NC(=O)[C@H](CCCNC(=N)N)NC(=O)[C@H](Cc1c[nH]c2ccccc12)NC(=O)[C@@H]1CCCN1C(=O)[C@H](CC(N)=O)NC(=O)[C@H](CCC(N)=O)NC(=O)[C@H](CC(=O)O)NC(=O)[C@H](CC(=O)O)NC(=O)[C@H](CSC1CC(=O)N(CCNC(=O)CCCCCN2/C(=C/C=C/C=C/C=C/C3=[N+](CCCCS(=O)(=O)[O-])c4ccc5ccccc5c4C3(C)C)C(C)(C)c3c2ccc2ccccc32)C1=O)NC(=O)[C@H](C)N)C(=O)N[C@@H](CC(=O)O)C(=O)N[C@@H](CC(C)C)C(=O)N[C@@H](CC(C)C)C(=O)N[C@@H](Cc1ccccc1)C(=O)N1CCC[C@H]1C(=O)N[C@H](C(=O)N[C@@H](CC(=O)O)C(=O)N[C@H](C(=O)N[C@@H](CC(C)C)C(=O)N[C@@H](CC(C)C)C(=O)N[C@@H](CC(C)C)C(=O)N[C@@H](CC(=O)O)C(=O)N[C@@H](CC(C)C)C(=O)N[C@@H](CC(C)C)C(=O)N[C@@H](Cc1c[nH]c2ccccc12)C(=O)N[C@@H](C)C(=O)O)[C@@H](C)O)[C@@H](C)O (some centres unmarked) [ICG-pHLIP] (H-AC(X1)DDQNPWRAYLDLLFPTDTLLLDLLWA-OH),time the fluorescence stays within the tumor,4T1 tumor,up to 26 hours
same,"Fluorescence intensity, Bone",5 min p.i.,79.4 ± 8.1 a.u.
same,"Fluorescence intensity, Brain",5 min p.i.,167.0 ± 22.5 a.u.
same,"Fluorescence intensity, Heart",5 min p.i.,198.1 ± 15.9 a.u.
same,"Fluorescence intensity, Kidneys",5 min p.i.,171.7 ± 18.4 a.u.
same,"Fluorescence intensity, L. Intest.",5 min p.i.,37.1 ± 7.9 a.u.
same,"Fluorescence intensity, Liver",5 min p.i.,419.8 ± 37.9 a.u.
same,"Fluorescence intensity, Lungs",5 min p.i.,216.6 ± 2.7 a.u.
same,"Fluorescence intensity, Muscle",5 min p.i.,22.2 ± 20.3 a.u.
same,"Fluorescence intensity, Pancreas",5 min p.i.,153.2 ± 34.7 a.u.
same,"Fluorescence intensity, S. Intest.",5 min p.i.,42.4 ± 12.2 a.u.
same,"Fluorescence intensity, Skin",5 min p.i.,27.9 ± 16.4 a.u.
same,"Fluorescence intensity, Spleen",5 min p.i.,154.6 ± 9.0 a.u.
same,"Fluorescence intensity, Stomach",5 min p.i.,91.7 ± 13.4 a.u.
same,"Fluorescence intensity, Tumor",5 min p.i.,36.2 ± 6.0 a.u.
same,"Fluorescence intensity, Bone",1 hour p.i.,74.0 ± 13.1 a.u.
same,"Fluorescence intensity, Brain",1 hour p.i.,137.7 ± 8.9 a.u.
same,"Fluorescence intensity, Heart",1 hour p.i.,179.6 ± 16.4 a.u.
same,"Fluorescence intensity, Kidneys",1 hour p.i.,193.7 ± 10.6 a.u.
same,"Fluorescence intensity, L. Intest.",1 hour p.i.,28.4 ± 17.9 a.u.
same,"Fluorescence intensity, Liver",1 hour p.i.,533.0 ± 16.7 a.u.
same,"Fluorescence intensity, Lungs",1 hour p.i.,194.7 ± 6.2 a.u.
same,"Fluorescence intensity, Muscle",1 hour p.i.,8.2 ± 18.2 a.u.
same,"Fluorescence intensity, Pancreas",1 hour p.i.,132.7 ± 24.5 a.u.
same,"Fluorescence intensity, S. Intest.",1 hour p.i.,71.9 ± 16.9 a.u.
same,"Fluorescence intensity, Skin",1 hour p.i.,39.1 ± 9.0 a.u.
same,"Fluorescence intensity, Spleen",1 hour p.i.,157.8 ± 4.4 a.u.
same,"Fluorescence intensity, Stomach",1 hour p.i.,99.1 ± 23.0 a.u.
same,"Fluorescence intensity, Tumor",1 hour p.i.,100.5 ± 38.5 a.u.
same,"Fluorescence intensity, Bone",2 hours p.i.,57.5 ± 23.4 a.u.
same,"Fluorescence intensity, Brain",2 hours p.i.,82.2 ± 17.4 a.u.
same,"Fluorescence intensity, Heart",2 hours p.i.,167.6 ± 12.2 a.u.
same,"Fluorescence intensity, Kidneys",2 hours p.i.,156.0 ± 14.1 a.u.
same,"Fluorescence intensity, L. Intest.",2 hours p.i.,6.4 ± 14.4 a.u.
same,"Fluorescence intensity, Liver",2 hours p.i.,542.6 ± 26.8 a.u.
same,"Fluorescence intensity, Lungs",2 hours p.i.,177.0 ± 10.4 a.u.
same,"Fluorescence intensity, Muscle",2 hours p.i.,0.0 ± 0.0 a.u.
same,"Fluorescence intensity, Pancreas",2 hours p.i.,89.0 ± 32.0 a.u.
same,"Fluorescence intensity, S. Intest.",2 hours p.i.,47.1 ± 13.9 a.u.
same,"Fluorescence intensity, Skin",2 hours p.i.,32.0 ± 18.1 a.u.
same,"Fluorescence intensity, Spleen",2 hours p.i.,136.9 ± 7.7 a.u.
same,"Fluorescence intensity, Stomach",2 hours p.i.,80.7 ± 18.6 a.u.
same,"Fluorescence intensity, Tumor",2 hours p.i.,133.9 ± 14.2 a.u.
same,"Fluorescence intensity, Bone",4 hours p.i.,63.1 ± 21.0 a.u.
same,"Fluorescence intensity, Brain",4 hours p.i.,73.8 ± 8.3 a.u.
same,"Fluorescence intensity, Heart",4 hours p.i.,185.6 ± 7.2 a.u.
same,"Fluorescence intensity, Kidneys",4 hours p.i.,185.5 ± 6.2 a.u.
same,"Fluorescence intensity, L. Intest.",4 hours p.i.,7.9 ± 17.6 a.u.
same,"Fluorescence intensity, Liver",4 hours p.i.,540.1 ± 18.8 a.u.
same,"Fluorescence intensity, Lungs",4 hours p.i.,187.0 ± 17.2 a.u.

# Source: patent US20180369425A1, “LINKED AND OTHER pH-TRIGGERED COMPOUNDS” (priority 2017, published 2018)
